Results reported in paper PMC3377065 (EMBO Molecular Medicine, 2011).
Several values for one entry are separate records, joined by “and”; a condition that tells them apart may be missing. Identical values can stand only once.

Molecular target: the molecule itself
Assay: non-reducing SDS-PAGE and Western blot

B1: human CMG2 C39A, V5-tagged (receptor)
chain: not shown
Q: How did the “stoichiometry N” value turn out when B1 was run?
A: 2

B2: human CMG2 C315A, V5-tagged (receptor)
chain: not shown
Q: For B2, which “stoichiometry N” value is on record?
A: 3 and 4

B3: human CMG2 C218A, V5-tagged (receptor)
chain: not shown
Q: Which “stoichiometry N” value does the source give for B3 here?
A: 2

B4: human CMG2 C255A, V5-tagged (receptor)
chain: not shown
Q: For B4, which “stoichiometry N” value is on record?
A: 3 and 4

B5: human CMG2 C230A, V5-tagged (receptor)
chain: not shown
Q: For B5, which “stoichiometry N” value is on record?
A: 3 and 4

B6: human CMG2 C230A–C315A double mutant, V5-tagged (receptor)
chain: not shown
Q: How did the “stoichiometry N” value turn out when B6 was run?
A: 2

B7: human CMG2 C279A, V5-tagged (receptor)
chain: not shown
Q: How did the “stoichiometry N” value turn out when B7 was run?
A: 3 and 4
